According to publication PMC1887683:

Biological target: STAT1 (activated; HepG2 nuclear extract, IL-6) (UniProt P42224)
Assay: competition EMSA
Conditions: scale: fold competition efficiency vs c-myc E2F

Chain of STAT1 (activated; HepG2 nuclear extract, IL-6) (P42224 whole entry): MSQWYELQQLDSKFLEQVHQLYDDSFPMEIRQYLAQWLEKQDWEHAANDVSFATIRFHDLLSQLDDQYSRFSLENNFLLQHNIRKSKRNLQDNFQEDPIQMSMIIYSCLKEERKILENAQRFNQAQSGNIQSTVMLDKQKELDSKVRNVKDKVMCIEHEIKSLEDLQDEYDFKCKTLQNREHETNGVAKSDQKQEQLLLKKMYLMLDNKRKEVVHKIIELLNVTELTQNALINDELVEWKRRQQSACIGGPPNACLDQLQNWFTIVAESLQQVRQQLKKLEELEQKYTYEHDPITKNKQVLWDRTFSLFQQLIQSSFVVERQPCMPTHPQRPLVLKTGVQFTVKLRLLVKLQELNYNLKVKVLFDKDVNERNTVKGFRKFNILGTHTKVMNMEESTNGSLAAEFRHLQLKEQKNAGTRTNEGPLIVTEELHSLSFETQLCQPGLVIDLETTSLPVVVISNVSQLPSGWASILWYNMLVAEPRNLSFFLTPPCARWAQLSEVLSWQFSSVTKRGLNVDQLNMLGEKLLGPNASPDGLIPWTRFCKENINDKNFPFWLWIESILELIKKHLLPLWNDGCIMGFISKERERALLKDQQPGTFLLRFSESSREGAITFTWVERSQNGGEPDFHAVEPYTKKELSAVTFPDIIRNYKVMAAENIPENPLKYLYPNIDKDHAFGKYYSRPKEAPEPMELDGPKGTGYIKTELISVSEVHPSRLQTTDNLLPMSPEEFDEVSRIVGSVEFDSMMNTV

**Q.** APRE (alpha2-macroglobulin) was tested. Which binding signal did it give?
**A.** 5
